The assay deals with HA-Akt, P31749. Put plainly: co-immunoprecipitation (FLAG beads), HA-Akt band quantified. The settings on record: chain shown with the change, HEK-293 cells expressing D3R, n = 3, read off a plot.
Sequence of HA-Akt, P31749 (P31749 whole entry): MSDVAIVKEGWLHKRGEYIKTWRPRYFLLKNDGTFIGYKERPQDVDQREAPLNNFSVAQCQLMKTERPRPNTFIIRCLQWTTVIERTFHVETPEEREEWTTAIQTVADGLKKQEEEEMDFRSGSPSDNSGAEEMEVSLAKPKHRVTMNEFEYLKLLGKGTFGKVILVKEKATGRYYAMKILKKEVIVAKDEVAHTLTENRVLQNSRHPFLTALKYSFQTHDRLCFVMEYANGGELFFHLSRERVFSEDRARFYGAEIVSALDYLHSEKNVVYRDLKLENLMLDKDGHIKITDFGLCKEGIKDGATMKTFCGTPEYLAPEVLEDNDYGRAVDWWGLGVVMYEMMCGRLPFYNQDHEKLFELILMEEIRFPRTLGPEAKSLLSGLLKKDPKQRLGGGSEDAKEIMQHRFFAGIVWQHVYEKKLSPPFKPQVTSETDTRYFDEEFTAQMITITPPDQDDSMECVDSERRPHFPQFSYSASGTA

B1: FLAG-USP33, Q8TEY7-2 T154A (protein)
chain: MSAFRNHCPHLDSVGEITKEDLIQKSLGTCQDCKVQGPNLWACLENRCSYVGCGESQVDHSTIHSQETKHYLTVNLTTLRVWCYACSKEVFLDRKLGTQPSLPHVRQPHQIQENSVQDFKIPSNTTLKTPLVAVFDDLDIEADEEDELRARGLAGLKNIGNTCYMNAALQALSNCPPLTQFFLDCGGLARTDKKPAICKSYLKLMTELWHKSRPGSVVPTTLFQGIKTVNPTFRGYSQQDAQEFLRCLMDLLHEELKEQVMEVEEDPQTITTEETMEEDKSQSDVDFQSCESCSNSDRAENENGSRCFSEDNNETTMLIQDDENNSEMSKDWQKEKMCNKINKVNSEGEFDKDRDSISETVDLNNQETVKVQIHSRASEYITDVHSNDLSTPQILPSNEGVNPRLSASPPKSGNLWPGLAPPHKKAQSASPKRKKQHKKYRSVISDIFDGTIISSVQCLTCDRVSVTLETFQDLSLPIPGKEDLAKLHSSSHPTSIVKAGSCGEAYAPQGWIAFFMEYVKRFVVSCVPSWFWGPVVTLQDCLAAFFARDELKGDNMYSCEKCKKLRNGVKFCKVQNFPEILCIHLKRFRHELMFSTKISTHVSFPLEGLDLQPFLAKDSPAQIVTYDLLSVICHHGTASSGHYIAYCRNNLNNLWYEFDDQSVTEVSESTVQNAEAYVLFYRKSSEEAQKERRRISNLLNIMEPSLLQFYISRQWLNKFKTFAEPGPISNNDFLCIHGGVPPRKAGYIEDLVLMLPQNIWDNLYSRYGGGPAVNHLYICHTCQIEAEKIEKRRKTELEIFIRLNRAFQKEDSPATFYCISMQWFREWESFVKGKDGDPPGPIDNTKIAVTKCGNVMLRQGADSGQISEETWNFLQSIYGGGPEVILRPPVVHVDPDILQAEEKIEVETRSL
Take B1: the other: Folds of Co-IP turned out to be 0.74 fold (Quin +, parent: est. 0.97); 0.86 fold (Quin w/+ (desensitization condition), parent: est. 1.7); 0.9 fold (Veh (Quin -), parent: est. 0.97).

The record behind these values is article PMC9854190.
